How the values were obtained:
Settings in all cases: both partners purified
[1] = molecular target: T1, carrier protein (scFv 14B7) with the minimal DYKD peptide at the n-terminus (synthetic peptide tag (minimal FLAG)); test: ELISA; wells coated with carrier protein ligands (10 μg/mL); purified Fab serially diluted; detected with goat-anti-human kappa-HRP
T1 construct: minimal FLAG peptide at the protein n-terminus; irrelevant scFv 14B7 used as carrier protein; also called n-DYKD; n-DYKD ligand; source: plasmid pAK400/14B7
T1 chain: DYKD

[2] = molecular target: T2, MBP-KEE ligand (EE peptide) (peptide tag (EE/Glu-Glu), derived from …); test: as above
T2 construct: EE peptide presented by MBP
T2 chain: EYMPME

[3] = molecular target: T2, MBP-KEE ligand (EE peptide); test: ELISA; monoclonal phage ELISA: phage purified by NaCl-PEG precipitation, serially diluted at known pfu, on wells coated with ligand (4 μg/ml); detected with anti-M13-HRP; signal shown at 10^11 pfu
[4] = molecular target: T2, MBP-KEE ligand (EE peptide); test: ELISA; wells coated with carrier protein ligands (10 μg/mL); purified Fab serially diluted; detected with goat-anti-human kappa-HRP
[5] = molecular target: T3, carrier protein (scFv 14B7) with the minimal DYKD peptide at the n-terminus (synthetic peptide tag (minimal FLAG)); test: as above; remark: listed apart in the source
T3 construct: minimal FLAG peptide at the protein n-terminus; irrelevant scFv 14B7 used as carrier protein; also called n-DYKD; n-DYKD ligand; source: plasmid pAK400/14B7

B1: EEh13.6 Fab (Fab, V domains shown)
VH: QVQLQQSGPEDVKPGASVKISCKASGDSLSSFNAGVNWVKQSPGKGLEWLAHGAVMSTRYNPSLKSRATLTVDKTSSTVYLELRSLTSEDSSVYYCAKSTGRYDFWGQGTTVTVSS
VL: DIVMTQTPSSLPVSLGDQASISCRSSQSIVHSNGNTYLEWYLQKPGQSPKLLIYKVSNRFSGVPDRFSGSGSGTDFTLKISRVEAEDLGIYYCFQGSLVPPTFGAGTKLELK
notes: VH as the VH of m1: framework of the αEE scFv (PDB 3NN8) with designed CDRs H1-H3; heavy chain constant part of the Fab from the vector pFabF; not described; VL as in the αEE scFv (PDB 3NN8), not modified in the EEh library; kappa light chain constant domain from the vector pFabF; human by the detection reagent (goat anti-human kappa); This Fab co-purified with free light chain (33 % monomer); …
[1]
  EC50: 21 nM
[2]
  binding result: no binding

B2: EEh13.6 scFv displayed on phage (scFv, V domains shown)
VH: QVQLQQSGPEDVKPGASVKISCKASGDSLSSFNAGVNWVKQSPGKGLEWLAHGAVMSTRYNPSLKSRATLTVDKTSSTVYLELRSLTSEDSSVYYCAKSTGRYDFWGQGTTVTVSS
VL: DIVMTQTPSSLPVSLGDQASISCRSSQSIVHSNGNTYLEWYLQKPGQSPKLLIYKVSNRFSGVPDRFSGSGSGTDFTLKISRVEAEDLGIYYCFQGSLVPPTFGAGTKLELK
notes: VL as in the αEE scFv (PDB 3NN8); the light chain was not modified in the EEh library; linker, printed as (GGGGS)4; VH: framework of the αEE scFv (PDB 3NN8) with designed CDRs H1-H3; model PDB file in the supplementary datasets; Orientation VL-(GGGGS)4-VH; no amino acid differences from αEE outside the CDRs; also called EEh13.6 scFv-phage; source: E. coli, scFv fused to truncated pIII on phage …
[3]
  binding result: no binding

B3: EEh14.3 scFv displayed on phage (scFv, V domains shown)
VH: QVQLQQSGPEDVKPGASVKISCKASGDSLSSYNAGVNWVKQSPGKGLEWLAHMAGVSTRYNPSLKSRATLTVDKTSSTVYLELRSLTSEDSSVYYCVRNEWSGAFWGQGTTVTVSS
VL: DIVMTQTPSSLPVSLGDQASISCRSSQSIVHSNGNTYLEWYLQKPGQSPKLLIYKVSNRFSGVPDRFSGSGSGTDFTLKISRVEAEDLGIYYCFQGSLVPPTFGAGTKLELK
notes: VL as in the αEE scFv (PDB 3NN8); the light chain was not modified in the EEh library; linker, printed as (GGGGS)4; VH: framework of the αEE scFv (PDB 3NN8) with designed CDRs H1-H3; model PDB file in the supplementary datasets; Orientation VL-(GGGGS)4-VH; no amino acid differences from αEE outside the CDRs; also called EEh14.3 scFv-phage; source: E. coli, scFv fused to truncated pIII on phage …
[3]
  binding result: no binding

B4: EEh14.3 Fab (Fab, V domains shown)
VH: QVQLQQSGPEDVKPGASVKISCKASGDSLSSYNAGVNWVKQSPGKGLEWLAHMAGVSTRYNPSLKSRATLTVDKTSSTVYLELRSLTSEDSSVYYCVRNEWSGAFWGQGTTVTVSS
VL: DIVMTQTPSSLPVSLGDQASISCRSSQSIVHSNGNTYLEWYLQKPGQSPKLLIYKVSNRFSGVPDRFSGSGSGTDFTLKISRVEAEDLGIYYCFQGSLVPPTFGAGTKLELK
notes: VH as the VH of m2: framework of the αEE scFv (PDB 3NN8) with designed CDRs H1-H3; heavy chain constant part of the Fab from the vector pFabF; not described; VL as in the αEE scFv (PDB 3NN8), not modified in the EEh library; kappa light chain constant domain from the vector pFabF; human by the detection reagent (goat anti-human kappa); also called Fab EEh14.3
[1]
  EC50: 50 nM
[2]
  binding result: no binding

B5: αEE Fab (parental) (Fab, V domains shown)
VH: QVQLQQSGPEDVKPGASVKISCKASGYSLSTSGMGVNWVKQSPGKGLEWLAHIYWDDDKRYNPSLKSRATLTVDKTSSTVYLELRSLTSEDSSVYYCARRGGSSHYYAMDYWGQGTTVTVSS
VL: DIVMTQTPSSLPVSLGDQASISCRSSQSIVHSNGNTYLEWYLQKPGQSPKLLIYKVSNRFSGVPDRFSGSGSGTDFTLKISRVEAEDLGIYYCFQGSLVPPTFGAGTKLELK
notes: VH of the αEE scFv; heavy chain constant part of the Fab; not described; VL of the αEE scFv; kappa light chain constant domain; human by the detection reagent (goat anti-human kappa); also called parental αEE Fab; source: bacterial periplasm, purified Fab
[4]
  EC50: 35.3 nM

B6: EEf15.4 Fab (Fab, V domains shown)
VH: QVQLQQSGPEDVKPGASVKISCKASGFSIKGANVNWVKQSPGKGLEWLAHVRGDASTRYNPSLKSRATLTVDKTSSTVYLELRSLTSEDSSVYYCADRKMYSFYSGGEAWGQGTTVTVSS
VL: DIVMTQTPSSLPVSLGDQASISCRSSNARSGSLEWYLQKPGQSPKLLIYDGNNRFSGVPDRFSGSGSGTDFTLKISRVEAEDLGIYYCSAFDQTNKYVGFGAGTKLELK
notes: VH as the VH of m3: framework of the αEE scFv (PDB 3NN8) with designed CDRs H1-H3; heavy chain constant part of the Fab from the vector pFabF; not described; VL as the VL of m3: framework of the αEE scFv (PDB 3NN8) with designed CDRs L1-L3; kappa light chain constant domain from the vector pFabF; human by the detection reagent (goat anti-human kappa); also called Fab EEf15.4
[5]
  EC50: 4.1 nM
[2]
  binding result: no binding

B7: EEf15.4a scFv displayed on phage (scFv, V domains shown)
VH: QVQLQQSGPEDVKPGASVKISCKASGYIGSSHTVNWVKQSPGKGLEWLAHVRGDASTRYNPSLKSRATLTVDKTSSTVYLELRSLTSEDSSVYYCADRKMYSFYSGGEAWGQGTTVTVSS
VL: DIVMTQTPSSLPVSLGDQASISCRSSNARSGSLEWYLQKPGQSPKLLIYDGNNRFSGVPDRFSGSGSGTDFTLKISRVEAEDLGIYYCSAFDQTNKYVGFGAGTKLELK
notes: VL as the VL of EEf15.4: framework of the αEE scFv (PDB 3NN8) with designed CDRs L1-L3; linker, printed as (GGGGS)4; VH as the VH of EEf15.4 except CDR H1, which is that of design EEf5.1; framework of the αEE scFv (PDB 3NN8); Result of a gene synthesis error that combined CDR H1 of EEf5.1 with the other five CDRs of EEf15.4; also called EEf15.4a scFv-phage; source: E. coli, scFv fused …
[3]
  binding result: no binding

B8: EEf15.4a Fab (Fab, V domains shown)
VH: QVQLQQSGPEDVKPGASVKISCKASGYIGSSHTVNWVKQSPGKGLEWLAHVRGDASTRYNPSLKSRATLTVDKTSSTVYLELRSLTSEDSSVYYCADRKMYSFYSGGEAWGQGTTVTVSS
VL: DIVMTQTPSSLPVSLGDQASISCRSSNARSGSLEWYLQKPGQSPKLLIYDGNNRFSGVPDRFSGSGSGTDFTLKISRVEAEDLGIYYCSAFDQTNKYVGFGAGTKLELK
notes: VH as the VH of m4: as EEf15.4 except CDR H1, which is that of design EEf5.1; framework of the αEE scFv (PDB 3NN8); heavy chain constant part of the Fab from the vector pFabF; not described; VL as the VL of m3: framework of the αEE scFv (PDB 3NN8) with designed CDRs L1-L3; kappa light chain constant domain from the vector pFabF; human by the detection reagent (goat anti-human kappa); also called …
[5]
  EC50: 4.8 nM
[2]
  binding result: no binding

B9: EEf15.4 scFv displayed on phage (scFv, V domains shown)
VH: QVQLQQSGPEDVKPGASVKISCKASGFSIKGANVNWVKQSPGKGLEWLAHVRGDASTRYNPSLKSRATLTVDKTSSTVYLELRSLTSEDSSVYYCADRKMYSFYSGGEAWGQGTTVTVSS
VL: DIVMTQTPSSLPVSLGDQASISCRSSNARSGSLEWYLQKPGQSPKLLIYDGNNRFSGVPDRFSGSGSGTDFTLKISRVEAEDLGIYYCSAFDQTNKYVGFGAGTKLELK
notes: VL: framework of the αEE scFv (PDB 3NN8) with designed CDRs L1-L3; model PDB file in the supplementary datasets; linker, printed as (GGGGS)4; VH: framework of the αEE scFv (PDB 3NN8) with designed CDRs H1-H3; Orientation VL-(GGGGS)4-VH; no amino acid differences from αEE outside the CDRs; also called EEf15.4 scFv-phage; source: E. coli, scFv fused to truncated pIII on phage (phagemid pMopac24); …
[3]
  binding result: no binding

From publication PMC5579192, “De novo design of antibody complementarity determining regions binding a FLAG tetra-peptide” (Scientific Reports, 2017)
